Data as given in PMC9606172, “Recombinant acetylxylan esterase of Halalkalibacterium halodurans NAH-Egypt: molecular and biochemical study” (AMB Express, 2022).

Substrate: CC(=O)Oc1ccc([N+](=O)[O-])cc1
Test: purified protein
Type: biochemical, Halalkalibacterium halodurans
Settings: 30 mM Tris-HCl pH 8.0 (general assay), temperature for the Km not given

B1: AXE-HAS10 (Halalkalibacterium halodurans C-125) (protein)
chain: MPLIDMPLTELKEYMGRNPKPDDFTEYWDRALQEMRKVNPNVELIPSDFQTTYAECFHLYFTGVRGARIHAKYVRPRHTSGTHPAVIHFHGYTMNAGEWTGLLHYAALGYSVLAMDVRGQGGLSEDTGGVKGNTHSGHIIRGLDDNADQLLFRHVFLDTAQLANIVMNLPEVDEERVAVTGWSQGGALAIACAALEPKIKKVAPVYPFLSDYQRVWEMDLAEKAYDELQTYFRRFDPQHRREAEIFTKLGYIDIQHLAPLVKGEVLLAVGLMDTVCPPSTQFAMYNKLTTTKSIELYPDFAHEDLPGHRDRIFQFLSDL
notes: full-length ORF, 319 residues, no signal peptide; pET-28a(+) His6 fusion, 33 extra residues N-terminal and 9 C-terminal; E. coli BL21 (DE3) Rosetta; EC 3.1.1.72, CE7
Q: How did the Km turn out when B1 was run?
A: 96 µM

Q: What about the kcat of the same protein?
A: 63.1 s⁻¹

Q: What about the kcat/Km of the same protein?
A: 657000 M⁻¹ s⁻¹
